According to article PMC3377666:

Target: recombinant human Pol δ core+p68 trimer (p125/p50/p68) (human) (UniProt P28340)
Sequence (P28340 whole entry, stated change not applied, chain 1 of 3): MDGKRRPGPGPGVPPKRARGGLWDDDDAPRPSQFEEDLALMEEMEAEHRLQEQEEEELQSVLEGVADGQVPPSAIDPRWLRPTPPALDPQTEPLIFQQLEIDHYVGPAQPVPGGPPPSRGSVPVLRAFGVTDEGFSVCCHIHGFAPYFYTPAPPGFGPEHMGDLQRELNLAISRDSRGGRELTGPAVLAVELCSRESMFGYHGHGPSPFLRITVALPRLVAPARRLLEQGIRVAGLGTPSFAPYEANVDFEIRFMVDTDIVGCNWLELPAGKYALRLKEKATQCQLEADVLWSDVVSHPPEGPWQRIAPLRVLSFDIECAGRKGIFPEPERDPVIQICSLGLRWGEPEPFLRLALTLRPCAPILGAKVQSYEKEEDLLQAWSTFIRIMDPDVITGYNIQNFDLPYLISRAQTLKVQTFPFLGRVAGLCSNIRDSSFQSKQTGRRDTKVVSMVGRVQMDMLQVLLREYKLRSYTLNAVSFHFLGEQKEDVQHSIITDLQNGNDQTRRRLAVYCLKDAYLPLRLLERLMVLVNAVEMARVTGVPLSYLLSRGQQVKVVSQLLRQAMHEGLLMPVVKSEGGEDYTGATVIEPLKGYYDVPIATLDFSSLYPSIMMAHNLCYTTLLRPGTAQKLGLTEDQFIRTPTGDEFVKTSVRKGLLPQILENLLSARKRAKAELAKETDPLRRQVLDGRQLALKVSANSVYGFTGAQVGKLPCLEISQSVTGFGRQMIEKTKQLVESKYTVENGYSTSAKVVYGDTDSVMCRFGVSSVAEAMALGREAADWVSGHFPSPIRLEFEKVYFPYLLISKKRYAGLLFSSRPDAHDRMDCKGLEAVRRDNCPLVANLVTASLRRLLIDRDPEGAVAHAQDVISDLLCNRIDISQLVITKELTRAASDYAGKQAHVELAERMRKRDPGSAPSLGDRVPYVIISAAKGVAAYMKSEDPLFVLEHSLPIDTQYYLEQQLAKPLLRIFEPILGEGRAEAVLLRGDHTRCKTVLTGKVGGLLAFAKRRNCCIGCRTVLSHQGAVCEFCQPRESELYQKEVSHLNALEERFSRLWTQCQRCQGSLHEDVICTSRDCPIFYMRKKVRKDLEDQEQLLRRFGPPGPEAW
Sequence (P49005 whole entry, stated change not applied, chain 2 of 3, further chain): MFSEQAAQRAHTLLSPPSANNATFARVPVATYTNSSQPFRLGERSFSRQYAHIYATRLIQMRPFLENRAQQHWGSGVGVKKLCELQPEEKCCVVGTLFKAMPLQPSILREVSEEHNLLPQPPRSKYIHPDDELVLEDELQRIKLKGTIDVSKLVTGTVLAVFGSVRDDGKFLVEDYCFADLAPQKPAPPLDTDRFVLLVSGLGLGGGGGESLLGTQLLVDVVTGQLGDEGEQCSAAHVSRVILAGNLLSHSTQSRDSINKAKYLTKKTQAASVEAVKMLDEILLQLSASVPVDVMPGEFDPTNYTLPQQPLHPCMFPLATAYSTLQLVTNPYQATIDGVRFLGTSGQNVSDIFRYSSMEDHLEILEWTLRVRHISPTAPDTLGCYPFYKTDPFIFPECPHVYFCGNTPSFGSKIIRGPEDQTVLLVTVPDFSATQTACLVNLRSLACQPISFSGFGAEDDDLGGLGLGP
Sequence (Q15054 whole entry, stated change not applied, chain 3 of 3, further chain): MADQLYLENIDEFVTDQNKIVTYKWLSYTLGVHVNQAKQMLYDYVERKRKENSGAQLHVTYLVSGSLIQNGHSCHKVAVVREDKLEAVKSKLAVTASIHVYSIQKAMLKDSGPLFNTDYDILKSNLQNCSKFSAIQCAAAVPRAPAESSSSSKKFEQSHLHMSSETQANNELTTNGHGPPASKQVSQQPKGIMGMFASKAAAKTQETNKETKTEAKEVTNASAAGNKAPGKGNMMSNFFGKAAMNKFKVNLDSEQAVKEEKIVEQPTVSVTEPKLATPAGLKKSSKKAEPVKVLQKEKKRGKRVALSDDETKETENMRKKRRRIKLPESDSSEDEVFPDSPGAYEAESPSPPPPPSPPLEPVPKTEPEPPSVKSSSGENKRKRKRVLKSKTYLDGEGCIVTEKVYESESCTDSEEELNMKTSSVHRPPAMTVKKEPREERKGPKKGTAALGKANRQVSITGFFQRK

B1: non-tagged recombinant p12 (natural protein)
chain: MGRKRLITDSYPVVKRREGPAGHSKGELAPELGEEPQPRDEEEAELELLRQFDLAWQYGPCTGITRLQRWCRAKQMGLEPPPEVWQVLKTHPGDPRFQCSLWHLYPL
- restoration of Pol δ activity on poly(dA)/oligo(dT) with PCNA, core+p68 (200 fmoles) pre-incubated with 0-400 ng p12 at 4°C for 30 min, against Pol δ4: 80%
- restoration of Pol δ activity on singly primed M13 DNA, core+p68 (50 fmoles) pre-incubated with 0-400 ng p12, against Pol δ4: 96%
